The values that follow come from patent US20240270806A1.

The target of this assay is Human IL-12 receptor (human IL-12Rb1 and IL-12Rb2) (human) (UniProt P42701).
Chain of Human IL-12 receptor (human IL-12Rb1 and IL-12Rb2) (human) (Q99665 24-862, chain 2 of 2, other chains not shown): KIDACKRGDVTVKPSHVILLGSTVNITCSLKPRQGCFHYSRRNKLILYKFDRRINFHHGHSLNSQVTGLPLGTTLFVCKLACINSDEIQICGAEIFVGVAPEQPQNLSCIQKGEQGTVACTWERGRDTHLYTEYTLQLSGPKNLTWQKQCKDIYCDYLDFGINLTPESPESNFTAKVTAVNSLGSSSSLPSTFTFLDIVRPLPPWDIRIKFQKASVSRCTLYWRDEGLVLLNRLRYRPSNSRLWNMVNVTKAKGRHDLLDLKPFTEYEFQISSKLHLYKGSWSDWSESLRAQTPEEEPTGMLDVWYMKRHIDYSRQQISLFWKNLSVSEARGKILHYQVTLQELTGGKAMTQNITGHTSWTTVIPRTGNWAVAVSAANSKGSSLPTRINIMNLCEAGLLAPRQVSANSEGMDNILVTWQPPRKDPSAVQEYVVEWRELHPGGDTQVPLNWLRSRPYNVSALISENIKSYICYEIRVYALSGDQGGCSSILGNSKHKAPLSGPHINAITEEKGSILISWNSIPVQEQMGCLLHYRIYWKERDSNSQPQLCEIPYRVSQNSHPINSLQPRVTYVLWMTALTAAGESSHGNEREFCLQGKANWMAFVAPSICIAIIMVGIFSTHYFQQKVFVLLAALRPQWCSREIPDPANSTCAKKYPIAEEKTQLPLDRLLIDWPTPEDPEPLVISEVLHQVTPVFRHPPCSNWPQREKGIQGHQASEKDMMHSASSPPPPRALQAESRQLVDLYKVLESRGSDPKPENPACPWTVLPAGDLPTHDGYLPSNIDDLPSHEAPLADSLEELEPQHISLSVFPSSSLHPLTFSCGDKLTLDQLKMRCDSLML

Chain of rhIL-12 (P29460 23-328 limits assumed): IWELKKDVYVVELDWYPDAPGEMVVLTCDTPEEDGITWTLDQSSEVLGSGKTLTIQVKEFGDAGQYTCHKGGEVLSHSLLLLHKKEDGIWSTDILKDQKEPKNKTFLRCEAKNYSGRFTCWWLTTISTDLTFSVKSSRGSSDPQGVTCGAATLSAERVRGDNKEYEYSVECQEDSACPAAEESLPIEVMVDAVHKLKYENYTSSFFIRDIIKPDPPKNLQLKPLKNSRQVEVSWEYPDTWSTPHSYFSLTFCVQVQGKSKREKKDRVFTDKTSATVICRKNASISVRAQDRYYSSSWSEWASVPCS
Chain of rhIL-12 (P29459 23-219 limits assumed): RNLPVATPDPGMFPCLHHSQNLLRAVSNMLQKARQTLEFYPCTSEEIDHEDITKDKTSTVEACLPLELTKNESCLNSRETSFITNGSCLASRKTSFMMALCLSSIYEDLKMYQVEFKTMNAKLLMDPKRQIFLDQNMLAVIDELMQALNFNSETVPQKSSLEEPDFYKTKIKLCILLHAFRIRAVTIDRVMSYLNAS

In the case of “rhIL-12 (from UniProt P29460 23-328; P29459 23-219) (ligand)”, the EC50 (read off the curve), IL-12 luciferase reporter assay (+ Protease) amounted to 0.2 nM and the EC50 (read off the curve), IL-12 luciferase reporter assay (without protease) turned out to be 0.2 nM.
